Patent US20220235123A1 (UNIVERSITY OF TORONTO, published 2022)

T1: recombinant human vascular endothelial growth factor (hVEGF) 121 (human, UniProt P15692 27-147)
T1 construct: mature; also called human VEGF-A121; hVEGF 121 isoform
T1 sequence (looked up): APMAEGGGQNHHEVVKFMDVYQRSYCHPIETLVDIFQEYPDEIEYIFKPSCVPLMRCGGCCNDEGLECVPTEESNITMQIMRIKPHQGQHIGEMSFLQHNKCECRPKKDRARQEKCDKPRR


Experiments:
[1] = target: T2, recombinant human VEGF 165 isoform (human, UniProt P15692 27-191); test: competitive ELISA in solution, 10 pM hVEGF-165, free VEGF read with Quantikine kit
T2 construct: mature
T2 sequence (P15692 other isoform, or with tags, fused parts or gaps): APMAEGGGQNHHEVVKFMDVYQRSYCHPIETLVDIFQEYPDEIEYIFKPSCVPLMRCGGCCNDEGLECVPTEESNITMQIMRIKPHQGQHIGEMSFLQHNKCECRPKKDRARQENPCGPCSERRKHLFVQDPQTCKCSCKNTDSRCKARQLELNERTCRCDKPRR
Text: Kd calculated from the data fitted with a 5 parameter asymmetric model with Prism software.

[2] = target: T1, recombinant human vascular endothelial …; test: Fab-ELISA: Fab titrated on wells coated with 2 ug/mL hVEGF-121, detected with anti-kappa-light-chain-HRP; Kd estimated from EC50
Text: (§1) FIG. 4a-b. […] The bound Fabs were detected with anti-Kappa-light-chain-HRP-conjugated antibody (B).

[3] = target: T1, recombinant human vascular endothelial …; test: Fab-ELISA: Fab titrated on wells coated with 2 ug/mL hVEGF-121, detected with anti-kappa-light-chain-HRP
Text: as §1

[4] = target: T1, recombinant human vascular endothelial …; test: SPR, off rate of hVEGF-121 binding

| Binder | Kd [1] [nM] | koff [4] [s⁻¹] | further results |
| --- | --- | --- | --- |
| Variant 205 (Fab variant of Clone #201) (Fab, V domains shown) VH: EVQLVESGGGLVQPGGSLRLSCAASGFDLFHYSIHWVRQAPGKGLEWVAYIYPSYGYTYYADSVKGRFTISADTSKNTAYLQMNSLRAEDTAVYYCARHAWYYGWGLDYWGQGTLVTVSS VL: DIQMTQSPSSLSASVGDRVTITCRASQAAYGRVAWYQQKPGKAPKLLIYKDSELYAGVPSRFSGSRSGTDFTLTISSLQPEDFATYYCQQRGWYLFTFGQGTKVEIKR | 0.062 | – | – |
| Variant 206 (Fab variant of Clone #201) (Fab, V domains shown, also called SI; No. 3) VH: EVQLVESGGGLVQPGGSLRLSCAASGFDLFHYSIHWVRQAPGKGLEWVAYIYPSYGYTYYADSVKGRFTISADTSKNTAYLQMNSLRAEDTAVYYCARHAWYYGWGLDYWGQGTLVTVSS VL: DIQMTQSPSSLSASVGDRVTITCRASQAAYGRVAWYQQKPGKAPKLLIYDASELYAGVPSRFSGSRSGTDFTLTISSLQPEDFATYYCQQRGWYLFTFGQGTKVEIKR | 0.014 | – | – |
| Variant 212 (Fab variant of Clone #201) (Fab, V domains shown) VH: EVQLVESGGGLVQPGGSLRLSCAASGFDLFHYSIDWVRQAPGKGLEWVAYIYPSYGYTYYADSVKGRFTISADTSKNTAYLQMNSLRAEDTAVYYCARHAWYYGWGLDYWGQGTLVTVSS VL: DIQMTQSPSSLSASVGDRVTITCRASQAAYGRVAWYQQKPGKAPKLLIYKASELYAGVPSRFSGSRSGTDFTLTISSLQPEDFATYYCQQRGWYLFTFGQGTKVEIKR | 1.28 | – | – |
| Variant 213 (Fab variant of Clone #201) (Fab, V domains shown) VH: EVQLVESGGGLVQPGGSLRLSCAASGFDLFHYDIHWVRQAPGKGLEWVAYIYPSYGYTYYADSVKGRFTISADTSKNTAYLQMNSLRAEDTAVYYCARHAWYYGWGLDYWGQGTLVTVSS VL: DIQMTQSPSSLSASVGDRVTITCRASQAAYGRVAWYQQKPGKAPKLLIYKASELYAGVPSRFSGSRSGTDFTLTISSLQPEDFATYYCQQRGWYLFTFGQGTKVEIKR | 0.091 | – | – |
| Variant 215 (Fab variant of Clone #201) (Fab, V domains shown) VH: EVQLVESGGGLVQPGGSLRLSCAASGFDLFDYSIHWVRQAPGKGLEWVAYIYPSYGYTYYADSVKGRFTISADTSKNTAYLQMNSLRAEDTAVYYCARHAWYYGWGLDYWGQGTLVTVSS VL: DIQMTQSPSSLSASVGDRVTITCRASQAAYGRVAWYQQKPGKAPKLLIYKASELYAGVPSRFSGSRSGTDFTLTISSLQPEDFATYYCQQRGWYLFTFGQGTKVEIKR | 0.027 | – | – |
| Variant 219 (Fab variant of Clone #201) (Fab, V domains shown, also called SI; No. 9) VH: EVQLVESGGGLVQPGGSLRLSCAASGFDLFHYSIHWVRQAPGKGLEWVAYIYPSYGYTYYADSVKGRFTISADTSKNTAYLQMNSLRAEDTAVYYCARHAWYYGWGLDYWGQGTLVTVSS VL: DIQMTQSPSSLSASVGDRVTITCRASQAAYDRVAWYQQKPGKAPKLLIYKASELYAGVPSRFSGSRSGTDFTLTISSLQPEDFATYYCQQRGWYLFTFGQGTKVEIKR | 0.012 | – | – |
| Variant 220 (Fab variant of Clone #201) (Fab, V domains shown) VH: EVQLVESGGGLVQPGGSLRLSCAASGFDLFHYSIHWVRQAPGKGLEWVAYIYPSYGYTYYADSVKGRFTISADTSKNTAYLQMNSLRAEDTAVYYCARHAWYYGWGLDYWGQGTLVTVSS VL: DIQMTQSPSSLSASVGDRVTITCRASQAAYGDVAWYQQKPGKAPKLLIYKASELYAGVPSRFSGSRSGTDFTLTISSLQPEDFATYYCQQRGWYLFTFGQGTKVEIKR | 0.026 | – | – |
| FF0124-7 (Fab, V domains shown, also called FF0124-7 F2116) VH: EVQLVESGGGLVQPGGSLRLSCAASGFDLYYSYMHWVRQAPGKGLEWVASISSYSGYTSYADSVKGRFTISADTSKNTAYLQMNSLRAEDTAVYYCARGFYYGGWYGIDYWGQGTLVTVSS VL: DIQMTQSPSSLSASVGDRVTITCRASQSVSSAVAWYQQKPGKAPKLLIYSASSLYSGVPSRFSGSRSGTDFTLTISSLQPEDFATYYCQQHYGPITFGQGTKVEIK | – | – | Kd [2]: 33 nM; EC50 (read off the curve) [3]: ~30 nM |
| FF0124-2 (Fab, V domains shown, seventh Fab of the naive library selection; also called FF0124-2 F2083; FF0124 Fab # 2) VH: EVQLVESGGGLVQPGGSLRLSCAASGFDLYYSSMHWVRQAPGKGLEWVASISPSSSYTYYADSVKGRFTISADTSKNTAYLQMNSLRAEDTAVYYCARYYWWHSPFWAYSGLDYWGQGTLVTVSS VL: DIQMTQSPSSLSASVGDRVTITCRASQSVSSAVAWYQQKPGKAPKLLIYSASSLYSGVPSRFSGSRSGTDFTLTISSLQPEDFATYYCQQSGPLFTFGQGTKVEIK | – | – | Kd [2]: 47 nM; EC50 (read off the curve) [3]: ~50 nM |
| FF0124-4 (Fab, V domains shown, also called FF0124-4 F2088) VH: EVQLVESGGGLVQPGGSLRLSCAASGFDLYSYSIHWVRQAPGKGLEWVASIYSYSGYTYYADSVKGRFTISADTSKNTAYLQMNSLRAEDTAVYYCARGGWYALDYWGQGTLVTVSS VL: DIQMTQSPSSLSASVGDRVTITCRASQSVSSAVAWYQQKPGKAPKLLIYSASSLYSGVPSRFSGSRSGTDFTLTISSLQPEDFATYYCQQGYGPFYSLITFGQGTKVEIK | – | – | Kd [2]: 11 nM; EC50 (read off the curve) [3]: ~10 nM |
| FF0124-5 (Fab, V domains shown, also called FF0124-5 F2091) VH: EVQLVESGGGLVQPGGSLRLSCAASGFDISSYYMHWVRQAPGKGLEWVASIYSYSGYTYYADSVKGRFTISADTSKNTAYLQMNSLRAEDTAVYYCARHSVYYWYGSYWYYPSSAMDYWGQGTLVTVSS VL: DIQMTQSPSSLSASVGDRVTITCRASQSVSSAVAWYQQKPGKAPKLLIYSASSLYSGVPSRFSGSRSGTDFTLTISSLQPEDFATYYCQQFWAGYGLITFGQGTKVEIK | – | – | Kd [2]: 19 nM; EC50 (read off the curve) [3]: ~20 nM |
| FF0124-6 (Fab, V domains shown, also called FF0124-6 F2094) VH: EVQLVESGGGLVQPGGSLRLSCAASGFDIYYYSMHWVRQAPGKGLEWVASISSYSGYTSYADSVKGRFTISADTSKNTAYLQMNSLRAEDTAVYYCARYPYYYWAFDYWGQGTLVTVSS VL: DIQMTQSPSSLSASVGDRVTITCRASQSVSSAVAWYQQKPGKAPKLLIYSASSLYSGVPSRFSGSRSGTDFTLTISSLQPEDFATYYCQQSGHYHYPFTFGQGTKVEIK | – | – | Kd [2]: 25 nM; EC50 (read off the curve) [3]: ~20 nM |
| FF03033-5 (Fab, V domains shown, fifth generation Fab from the library based on FF0117-A5) VH: EVQLVESGGGLVQPGGSLRLSCAASGFDLFHYSIHWVRQAPGKGLEWVAYIYPSYGYTYYADSVKGRFTISADTSKNTAYLQMNSLRAEDTAVYYCARHAWYYGWGLDYWGQGTLVTVSS VL: DIQMTQSPSSLSASVGDRVTITCRASQGVGERVAWYQQKPGKAPKLLIYNASHLAGVPSRFSGSRSGTDFTLTISSLQPEDFATYYCQQRGWYLFTFGQGTKVEIK | – | 0.000168 | – |
| FF03033-2 (Fab, V domains shown, fifth generation Fab from the library based on FF0117-A5) VH: EVQLVESGGGLVQPGGSLRLSCAASGFDLFHYSIHWVRQAPGKGLEWVAYIYPSYGYTYYADSVKGRFTISADTSKNTAYLQMNSLRAEDTAVYYCARHAWYYGWGLDYWGQGTLVTVSS VL: DIQMTQSPSSLSASVGDRVTITCRASQVAFYNVAWYQQKPGKAPKLLIYDASILNGVPSRFSGSRSGTDFTLTISSLQPEDFATYYCQQRGWYLFTFGQGTKVEIK | – | 0.000236 | – |
| FF03033-3 (Fab, V domains shown, fifth generation Fab from the library based on FF0117-A5) VH: EVQLVESGGGLVQPGGSLRLSCAASGFDLFHYSIHWVRQAPGKGLEWVAYIYPSYGYTYYADSVKGRFTISADTSKNTAYLQMNSLRAEDTAVYYCARHAWYYGWGLDYWGQGTLVTVSS VL: DIQMTQSPSSLSASVGDRVTITCRASQFVGYNVAWYQQKPGKAPKLLIYQASSLAGVPSRFSGSRSGTDFTLTISSLQPEDFATYYCQQRGWYLFTFGQGTKVEIK | – | 0.000146 | – |
| FF03033-4 (Fab, V domains shown, fifth generation Fab with one residue deleted near the end of CDR-L2; the text says FF03046-1 was made from it by putting the tyrosine back) VH: EVQLVESGGGLVQPGGSLRLSCAASGFDLFHYSIHWVRQAPGKGLEWVAYIYPSYGYTYYADSVKGRFTISADTSKNTAYLQMNSLRAEDTAVYYCARHAWYYGWGLDYWGQGTLVTVSS VL: DIQMTQSPSSLSASVGDRVTITCRASQEGWDRVAWYQQKPGKAPKLLIYSASQLAGVPSRFSGSRSGTDFTLTISSLQPEDFATYYCQQRGWYLFTFGQGTKVEIK | – | < 1e-06 | – |
| FF03033-6 (Fab, V domains shown, fifth generation Fab from the library based on FF0117-A5) VH: EVQLVESGGGLVQPGGSLRLSCAASGFDLFHYSIHWVRQAPGKGLEWVAYIYPSYGYTYYADSVKGRFTISADTSKNTAYLQMNSLRAEDTAVYYCARHAWYYGWGLDYWGQGTLVTVSS VL: DIQMTQSPSSLSASVGDRVTITCRASQPREDRVAWYQQKPGKAPKLLIYRASTLAGVPSRFSGSRSGTDFTLTISSLQPEDFATYYCQQRGWYLFTFGQGTKVEIK | – | 0.000284 | – |
| FF03033-8 (Fab, V domains shown, fifth generation Fab with one residue deleted near the end of CDR-L2; the text says FF03046-2 was made from it by putting the tyrosine back) VH: EVQLVESGGGLVQPGGSLRLSCAASGFDLFHYSIHWVRQAPGKGLEWVAYIYPSYGYTYYADSVKGRFTISADTSKNTAYLQMNSLRAEDTAVYYCARHAWYYGWGLDYWGQGTLVTVSS VL: DIQMTQSPSSLSASVGDRVTITCRASQAAYGRVAWYQQKPGKAPKLLIYKASELAGVPSRFSGSRSGTDFTLTISSLQPEDFATYYCQQRGWYLFTFGQGTKVEIK | – | < 1e-06 | – |
| Variant 209 (Fab variant of Clone #201) (Fab, V domains shown) VH: EVQLVESGGGLVQPGGSLRLSCAASGFDLFHYSIHWVRQAPGKGLEWVAYIYPSYGYTYYADSVKGRFTISADTSKNTAYLQMNSLRAEDTAVYYCARHAWYYGWGLDYWGQGTLVTVSS VL: DIQMTQSPSSLSASVGDRVTITCRASQDAAYGRVAWYQQKPGKAPKLLIYKASELYAGVPSRFSGSRSGTDFTLTISSLQPEDFATYYCQQRGWYLFTFGQGTKVEIKR | 0.028 | – | – |
